The source of these data is patent publication US20230365699A1 (published 2023).

For assay [1], the target named is T1, human BCMA (B-cell maturation antigen) expressed on cells (human, UniProt Q02223 1-184).
T1 construct: whole, on cells; also called hBCMA; hBCMA/HEK293 cell line
T1 sequence (looked up): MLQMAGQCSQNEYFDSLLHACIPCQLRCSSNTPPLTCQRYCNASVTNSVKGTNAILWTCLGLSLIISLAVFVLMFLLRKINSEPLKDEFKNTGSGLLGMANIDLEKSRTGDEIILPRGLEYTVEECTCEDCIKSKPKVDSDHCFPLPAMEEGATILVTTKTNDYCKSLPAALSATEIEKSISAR
The experiment in a line: flow cytometry, hBCMA-overexpressing HEK293 compared with OPM2 and RPMI-8226 cells.

Assay [2] deals with human BCMA (B-cell maturation antigen) expressed on cells (human) (UniProt Q02223). Description: flow cytometry, hBCMA-expressing HEK293 cells against parental HEK293 cells.
Assay [3] addresses T1, human BCMA (B-cell maturation antigen) …. The experiment in a line: flow cytometry on hBCMA-expressing HEK293 cells.

B1: BCMA-30 scFv (scFv, V domains shown)
VH: QVQLVQSGGGLVQPGRSLRLSCAASGFTFGDYAMHWVRQAPGKGLEWVSGISWNSGSIGYADSVKGRFTISRDNAKNSLYLQMNSLRAEDTAVYYCARDLDPDDAFDIWGQGTMVTVSS
Consider B1, for which the binding result in assay [1] is reported as “binds”.

B2: BCMA-18 scFv (scFv)
scFv: EVQLLESGGGLVQPGGSLRLSCAASGFTFSSYWMSWHRQAPGKGPEWVAHINQDGSEKYYVDSVKGRFTISRDNAESSLYLQMNSLRAEDTAVYYCARWLAVTNWGQGTLVTVSSGGGGSGGGGSGGGGSQSVLTQPPSASGTPGQRVTISCSGSGSNIGSNDVSWYQQIPGTAPKLLIYWNDQRPSGVPDRFSGSKSGTSASLAISGLRSEDEADYYCAAWDDSLNGWVFGGGTKLTVL
On to B2, for which the fold selective binding (hBCMA-expressing HEK293 over parental HEK293) in assay [2] came to 2.2 fold.

B3: BCMA-20 scFv (scFv)
scFv: EVQLLESGGGLVQPGRSLRLSCAASGFTFDDYAMHWVRQAPGKGLEWVSGISWNSGSIGYADSVKGRFTISRDNAKNSLYLQMNSLRAEDTALYYCAKGGLGITPYYFDYWGQGTLVTVSSGGGGSGGGGSGGGGSQPVLTQPPSASGTPGQRVTISCSGGKTVNWFRQVPGTAPQLLIYSNDQRPSGVPDRFSGSKSGSSASLDISGLQSEDEAYYYCGSWDDSLNAWVFGGETKLTVL
B3: the fold selective binding (hBCMA-expressing HEK293 over parental HEK293) in assay [2] stood at 10.8 fold.

B4: BCMA-13 scFv (scFv)
scFv: QMQLVQYGGGVVQPGRSLRLSCAASGFTFSSYAMHWVRQAPGKGLEWVAVISYDGSNKYYADSVKGRFTISRDNSKNTLYLQMNSLKAEDTAVYYCATLPGRDGYPGAFDYRGQGTLVTVSSGGGGSGGGGSGGGGSQAVLTQPPSASGTPGQRVTISCSGSGSNIGSNDVSWYQQIPGTAPKLLIYWNDQRPSGVPDRFSASKSGTSASLAISGLRSEDEADYYCAAWDDSLGGSWVFGGGTKVTVL
For B4, in assay [3], the binding result is recorded as “no binding”.

B5: BCMA-21 scFv (scFv)
scFv: EVQLVESGGGLVKPGGSLKLSCAASGFTFSDYYMSWIRQAPGKGLEWVSYISSSGSTIYYADSVKGRFTISRDNAKNSLYLQMNSLRAEDTAVYYCAKVDGGYTEDYWGQGTLVTVSSGGGGSGGGGSGGGGSQSVLTQPPSASGTPGQRVTISCSGSGSNIGSNDVSWYQQIPGTAPKLLIYWNDQRPSGVPDRFSGSKSGISASLAISGLRSEDEADYYCAAWDDSLNGYVFGTGTKVTVL
With B5, in assay [2], the fold selective binding (hBCMA-expressing HEK293 over parental HEK293) stood at 3.4 fold.

B6: BCMA-22 scFv (scFv)
scFv: EVQLVESGGGLVKPGGSLRLSCAASGFTFSDYYMSWIRQAPGKGLEWVSYISSSGSTIYYADSVKGRFTISRDNAKNSLYLQMNSLRAEDTAVYYCAKVDGDYTEDYWGQGTLVTVSSGGGGSGGGGSGGGGSQSALTQPASVSGSPGQSITISCTGSSSDVGKYNLVSWYQQPPGKAPKLIIYDVNKRPSGVSNRFSGSKSGNTATLTISGLQGDDEADYYCCSYGGSRSYVFGTGTKVTVL
B6: the fold selective binding (hBCMA-expressing HEK293 over parental HEK293) in assay [2] was 7.5 fold.
